# Data as given in patent US20250090676A1 (SUTRO BIOPHARMA, published 2025).
# Changes are numbered by the printed parent chain.
# B1: SRP1848-E06 (antibody, V domains shown)
# VH: EVQLVESGGGLVQPSGSLRLSCAASGFNINRYYIHWVRQAPGKGLEWVGGITPNDGYTDYADSVEGRFTTSADTSKNTAYLQMNSLRAEDTAVYYCARGTWSWPSGHSYYLDYWGQGTLVTVSS
# VL: not shown
# notes: HC variant paired with trastuzumab LC, cell-free expressed, HIS- and FLAG-tagged; also called Antibody 35
# B2: SRP1848-G01 (antibody, V domains shown)
# VH: EVQLVESGGGLVQPGGSLRLSCAASGFNISRHSIHWVRQAPGKGLEWVGWIAPNDGSTDYADSVKGRFTISADTSKNTAYLQMNSLRAEDTAVYYCARGSWAWRSGYSYFLDYWGQGTLVTVSS
# VL: not shown
# notes: HC variant paired with trastuzumab LC, cell-free expressed, HIS- and FLAG-tagged; also called Antibody 47
# B3: SRP1848-H01 (antibody, V domains shown)
# VH: EVQLVESGGGLVQPGGSLRLSCAASGFNIRTQSIHWVRQAPGKGLEWIGDIFPIDGITDYADSVKGRFTISADTSKNTAYLQMNSLRAEDTAVYYCARGSWSWPSGMDYYLDYWGQGTLVTVSS
# VL: not shown
# notes: HC variant paired with trastuzumab LC, cell-free expressed, HIS- and FLAG-tagged; also called Antibody 55
# B4: SRP1848-G03 (antibody, V domains shown)
# VH: EVQLVESGGGLVQPGGSLRLSCAASGFNISTYYIHWVRQAPGKGLEWVGGITPSDGFTDYADSVKGRSTISADTSKNTAYLQMNSLRAEDTAVYYCARGSWSWPSGHGYFLDYWGQGTLVTVSS
# VL: not shown
# notes: HC variant paired with trastuzumab LC, cell-free expressed, HIS- and FLAG-tagged; also called Antibody 48
# B5: SRP1848-G04 (antibody, V domains shown)
# VH: EVQLVESGGGLVQPGGSLRLSCAASGFNIHSTDIHWVRQAPGKGLEWVAYITPAGGATFYADSVKGRFTISADTSKNTAYLQMNSLRAEDTAVYYCARYPYWFAGYMDYWGQGTLVTVSS
# VL: not shown
# notes: HC variant paired with trastuzumab LC, cell-free expressed, HIS- and FLAG-tagged; also called Antibody 49
# B6: SRP1848-G06 (antibody, V domains shown)
# VH: B5 VH with H30R, F59Y, S63N, Y99Q
# VL: not shown
# notes: HC variant paired with trastuzumab LC, cell-free expressed, HIS- and FLAG-tagged; also called Antibody 50
# B7: SRP1848-G07 (antibody, V domains shown)
# VH: B5 VH with F59W, Y101F
# VL: not shown
# notes: HC variant paired with trastuzumab LC, cell-free expressed, HIS- and FLAG-tagged; also called Antibody 51
# B8: SRP1848-G10 (antibody, V domains shown)
# VH: B5 VH with G16S, H30R, F59Y, M107I
# VL: not shown
# notes: HC variant paired with trastuzumab LC, cell-free expressed, HIS- and FLAG-tagged; also called Antibody 53
# B9: SRP1848-G11 (antibody, V domains shown)
# VH: B5 VH with H30S, F59W, A104S
# VL: not shown
# notes: HC variant paired with trastuzumab LC, cell-free expressed, HIS- and FLAG-tagged; also called Antibody 54
# B10: SRP1848-G09 (antibody, V domains shown)
# VH: B5 VH with H30R, S31G, Y99H, P100E, A104S
# VL: not shown
# notes: HC variant paired with trastuzumab LC, cell-free expressed, HIS- and FLAG-tagged; also called Antibody 52
# B11: SRP1848-D03 (antibody, V domains shown)
# VH: B3 VH with L11V, T31Y, Q32F, I48V, I54N, I57S, D90E, S100H, M107Y, D108W
# VL: not shown
# notes: HC variant paired with trastuzumab LC, cell-free expressed, HIS- and FLAG-tagged; also called Antibody 25
# B12: SRP1848-E03 (antibody, V domains shown)
# VH: B4 VH with V12A, S30G, T31N, S54R, S68F, M83V, S105A, G108S, F110Y
# VL: not shown
# notes: HC variant paired with trastuzumab LC, cell-free expressed, HIS- and FLAG-tagged; also called Antibody 33
# B13: SRP1848-A02 (antibody, V domains shown)
# VH: EVQLVESGGGLVQPGGSLRLSCAASGFNISGFRIHWVRQAPGKGLEWVAGIYPESGATYYADSVKGRFTISADTSKNTAYLQMNSLRAEDTAVYYCARHLYVWDWVLDHVLDYWGQGTLVTVSS
# VL: not shown
# notes: HC variant paired with trastuzumab LC, cell-free expressed, HIS- and FLAG-tagged; also called Antibody 2
# B14: ADC Molecule 4 (1848-H01, Y180/F404, Conjugate P) (antibody, V domains shown)
# VH: B3 VH
# VL: not shown
# modifications: para-azidomethyl-L-phenylalanine at HC-Y180 and HC-F404 (EU numbering, heavy chain constant region), each linked to the cleavable hemiasterlin linker-drug of Conjugate P; DAR about 3.7-3.8
# B15: SRP2060-E10 (antibody, V domains shown)
# VH: EVQLLESGGGLVQPGGSLRLSCAFSGFSLSTFGMGVGWVRQAPGKGLEWVSHIWWDDDKYYHPALKGRFTISKDNSKNTVYLQMNSLRAEDTAVYYCGRNHFPHYYGSSHWYFNVWGQGTTVTVSS
# VL: EIVMTQSPATLSLSPGERATLSCKASQDINSYLSWYQQKPGQAPRLLIYRANRLVDGIPARFSGSGSGTDYTLTISSLEPEDFAVYYCLQYDEFPYTFGGGTKVEIK
# notes: also called Antibody 56
# B16: SRP2060-B01 (antibody, V domains shown)
# VH: B15 VH with F24L, P43T, Y81H
# VL: DIQMTQSPSTLSASVGDRVTITCKASQDINSYLSWYQQKPGKAPKLLIYRANRLVDGVPSRFSGSGSGTEFTLTISSLQPDDFATYYCLQYDEFPYTFGGGTKVEIK
# notes: also called Antibody 58
# B17: SRP2060-A06 (antibody, V domains shown)
# VH: B15 VH with S51G, H62Y, N114D
# VL: B16 VL
# notes: also called Antibody 59
# B18: SRP2060-E05 (antibody, V domains shown)
# VH: B15 VH with I71V
# VL: B15 VL
# notes: also called Antibody 57
# Biological target: T1, murine folate receptor alpha (mouse, UniProt P35846 25-232)
# T1 construct: Expressed on the surface of stably transfected CHO cells; also called mouse FolR1; CHO-mouse FolR1
# Test: FACS, CHO-mFOLR1 cells;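 note: flow cytometry binding of serially diluted test antibodies to transfected CHO cells on ice, mean fluorescence intensity, parental CHO cells give background, Kd from one-site specific binding fit with Hill slope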
# Experimental: (§1) CHO cells were transfected to stably express human (CHO-hFOLR1), cynomolgus (CHO-cFOLR1), or mouse (CHO-mFOLR1) target molecule FOLR1 on the cell surface. Parental CHO cells were used as a negative control to determine background binding levels. Parental CHO and stably transfected CHO-hFOLR1, CHO-cFOLR1, and CHO-mFOLR1 cells were cultured in Ham's F-12: high glucose DMEM (50:50) (Corning, Cellgro-Mediatech) supplemented with 10% heat-inactivated fetal bovine serum (Corning, Cellgro-Mediatech), 1% Penicillin/Streptomycin (Corning, Cellgro-Mediatech) and 2 mmol/L-glutamax (Life Technology).
# (§2) A mixture of fluoresecent-labeled parental CHO cells and unlabeled CHO-hFOLRlcells were prepared as follows. Parental CHO cells were washed twice in PBS and incubated in PBS containing with 1 nM CellTrace™ Oregon Green488® (Life Technologies) at 37° C. for 30 minutes. Labeled parental CHO cells were then washed 2× with Ham's F-12 media and 2× with FACS buffer (PBS with 1% bovine serum albumin). Unlabeled CHO-hFOLR1 cells were similarly washed and prepared. Labeled parental CHO and unlabeled CHO-hFOLR1 cells were combined at 1:1 ratio and seeded at 50 μL per well (200,000 cells per well) in 96 well polypropylene plates. Cells were mixed with 50 μL of test antibodies (i.e., anti-FOLR1 variants) serially diluted in FACS buffer and incubated on ice for 60 mins. […] Data were analyzed using FlowJo® software (FlowJo, LLC; Ashland, OR) to determine mean fluorescence intensities. Binding constants were calculated using the statistical software, GraphPad Prism (GraphPad Software; La Jolla, CA) using the nonlinear regression equation, one site-specific binding with Hill slope. Secondary antibody alone was used as a control, in addition to measuring non-specific antibody binding to CHO parental cells.
# T1 sequence (P35846 25-232 limits assumed): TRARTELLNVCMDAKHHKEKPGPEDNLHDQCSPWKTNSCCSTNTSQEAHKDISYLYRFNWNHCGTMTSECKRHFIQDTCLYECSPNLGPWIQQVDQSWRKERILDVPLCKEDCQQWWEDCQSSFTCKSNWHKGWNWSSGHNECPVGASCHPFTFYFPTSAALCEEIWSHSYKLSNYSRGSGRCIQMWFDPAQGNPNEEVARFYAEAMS
Binder,Bmax (MFI),Kd [nM]
B1,2350,1.2
B2,1990,4.6
B3,3950,33.8
B4,2220,2.4
B5,2000,2.5
B6,1860,11.1
B7,1980,2.9
B8,2890,4.3
B9,2740,7.6
B10,2180,6.4
B11,3170,9.5
B12,5940,0.5
B13,18600,2.4

# Biological target: human folate receptor alpha (hFOLR1) on cells (human, UniProt P15328 25-234)
# Test: cell-based or functional assay
# Chain of human folate receptor alpha (hFOLR1) on cells (P15328 25-234 limits assumed): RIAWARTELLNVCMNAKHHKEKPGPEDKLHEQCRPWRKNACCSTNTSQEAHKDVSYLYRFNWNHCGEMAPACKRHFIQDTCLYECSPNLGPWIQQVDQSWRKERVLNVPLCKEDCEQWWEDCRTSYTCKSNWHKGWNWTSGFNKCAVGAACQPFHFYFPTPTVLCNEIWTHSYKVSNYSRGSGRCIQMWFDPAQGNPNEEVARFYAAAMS
Binder,cell killing EC50 on Igrov1 cells in the presence of 0.5 uM unconjugated 1848-H01 as competitor [nM],cell killing EC50 on OVCAR3 cells in the presence of 0.5 uM unconjugated 1848-H01 as competitor [nM]
B14,> 33,> 33

# Biological target: T2, cynomolgus monkey folate receptor alpha (cynomolgus monkey, UniProt P15328 25-234 (human entry))
# T2 construct: Expressed on the surface of stably transfected CHO cells; also called cyno FolR1; CHO-cyno FolR1
# Test: FACS, CHO-cFOLR1 cells
# Experimental: as §1, §2
# T2 sequence (P15328 other isoform, or with tags, fused parts or gaps limits assumed): as the sequence (P15328 25-234 limits assumed) above, with I2T, W4R, R37K, Q117R, A146P, H171Y counted along it
Binder,Bmax (MFI),Kd [nM]
B1,15800,0.26
B2,20900,0.56
B3,17200,0.28
B4,19200,0.44
B5,12500,0.25
B6,12800,0.31
B7,13700,0.35
B8,14200,0.24
B9,11800,0.26
B10,17700,0.35
B11,14100,0.58
B12,17400,0.43
B13,18500,0.5

# Biological target: T3, human FOLR1-HIS (human, UniProt P15328 25-233)
# T3 construct: Analyte of the Biacore assay; also called FolRα-ECD; extracellular domain of FOLR1; not shown: HIS tag
# Test: SPR (Biacore), antibody captured on anti-Fc, human FOLR1-HIS analyte, 25 C
# T3 sequence (P15328 25-233 limits assumed): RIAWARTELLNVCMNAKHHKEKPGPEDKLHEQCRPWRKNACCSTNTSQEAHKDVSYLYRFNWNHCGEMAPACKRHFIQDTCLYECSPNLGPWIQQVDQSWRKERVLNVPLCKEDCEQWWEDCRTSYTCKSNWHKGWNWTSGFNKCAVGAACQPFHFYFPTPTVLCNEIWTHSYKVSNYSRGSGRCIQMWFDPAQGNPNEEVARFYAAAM
Binder,Kd [nM],koff [s⁻¹],kon [M⁻¹ s⁻¹]
B15,2.06,0.0012,582000
B16,2.62,0.00147,561000
B17,13.3,0.00729,547000
B18,2.92,0.00158,541000

# Biological target: T4, human folate receptor alpha (hFOLR1) (human, UniProt P15328 25-234)
# Test: cell-based or functional assay
# T4 sequence (P15328 25-234 limits assumed): as the sequence (P15328 25-234 limits assumed) above
Binder,"Igrov, 2° Antibody Cell Killing, Nb-SC239: EC50 [nM]","Igrov, 2° Antibody Cell Killing, Nb-SC239: Span [%]","KB, 2° Antibody Cell Killing, Nb-239: Span [%]","KB, 2° Antibody Cell Killing, Nb-239: EC50 [nM]"
B1,0.025,74,93,
B2,0.022,66,91,0.07
B3,0.016,67,96,0.049
B4,0.021,76,91,0.064
B5,0.016,75,92,0.051
B6,0.026,81,96,0.057
B7,0.038,78,94,0.058
B8,0.019,79,97,0.046
B9,0.023,84,97,0.04
B10,0.036,83,97,0.073
B11,0.038,76,98,
B12,0.027,73,94,0.057
B13,0.039,71,94,0.028

# Biological target: T4, human folate receptor alpha (hFOLR1)
# Test: FACS, CHO-hFOLR1 cells;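 note: flow cytometry of serially diluted antibodies binding CHO cells stably expressing the receptor, 60 min on ice, mixed with dye-tagged parental CHO as background control, one-site specific fit with Hill slope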
Binder,Bmax (MFI),Kd [nM]
B1,25600,0.48
B2,27400,0.98
B3,27000,0.59
B4,26400,0.82
B5,25200,0.76
B6,25800,0.63
B7,24900,0.78
B8,25300,0.49
B9,27200,0.68
B10,25100,0.59
B11,26000,1.9
B12,26700,0.76
B13,24700,0.64
